T1: WT-UreE dimer (Helicobacter pylori urease accessory protein UreE) (Helicobacter pylori, UniProt Q09064 1-170)
T1 sequence: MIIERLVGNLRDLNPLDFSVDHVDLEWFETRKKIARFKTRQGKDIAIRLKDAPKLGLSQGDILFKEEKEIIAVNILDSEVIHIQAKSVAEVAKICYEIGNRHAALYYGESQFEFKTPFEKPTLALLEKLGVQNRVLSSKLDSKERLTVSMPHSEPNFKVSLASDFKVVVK


Target: T1, WT-UreE dimer (Helicobacter pylori …)
Assay: ITC

Binder	Kd [nM]	dH [kcal/mol]	stoichiometry N [HypA per UreE dimer]
L2*-HypA (Met1_His2insLeu variant of Helicobacter pylori HypA) (natural protein) MLHEYSVVSSLIALCEEHAKKNQAHKIERVVVGIGERSAMDKSLFVSAFETFREESLVCKDAILDIVDEKVELECKDCSHVFKPNALDYGVCEKCHSKNVIITQGNEMRLLSLEMLAE	690 ± 110	-3.86 ± 0.06	1.6 ± 0.2
WT-HypA (Helicobacter pylori hydrogenase maturation protein HypA, unmodified N-terminus) (natural protein) MHEYSVVSSLIALCEEHAKKNQAHKIERVVVGIGERSAMDKSLFVSAFETFREESLVCKDAILDIVDEKVELECKDCSHVFKPNALDYGVCEKCHSKNVIITQGNEMRLLSLEMLAE	960 ± 90	-6.27 ± 0.06	1.5 ± 0.1

— publication PMC5540134 (Biochemistry, 2017)
